Assay results reported in US20200024322A1 (Eli Lilly, published 2020).

T1: human GIP receptor (human, UniProt P48546 22-466)
T1 construct: whole, on cells; also called hGIPR; hGIP-R
T1 sequence (looked up): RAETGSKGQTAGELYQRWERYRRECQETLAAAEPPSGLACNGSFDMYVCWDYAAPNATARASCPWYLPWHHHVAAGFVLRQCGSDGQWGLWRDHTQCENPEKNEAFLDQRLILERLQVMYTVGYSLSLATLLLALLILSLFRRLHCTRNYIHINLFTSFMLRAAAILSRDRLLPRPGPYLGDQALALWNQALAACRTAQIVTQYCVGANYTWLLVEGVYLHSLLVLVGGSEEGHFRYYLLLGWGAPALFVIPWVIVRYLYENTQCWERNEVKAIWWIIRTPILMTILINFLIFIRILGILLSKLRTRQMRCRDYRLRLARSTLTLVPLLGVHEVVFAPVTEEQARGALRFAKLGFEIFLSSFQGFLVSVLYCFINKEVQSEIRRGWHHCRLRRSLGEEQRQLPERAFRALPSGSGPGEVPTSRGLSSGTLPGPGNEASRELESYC

T2: human gastric inhibitory peptide receptor (GIPR) (human, UniProt P48546 22-466)
T2 sequence (looked up): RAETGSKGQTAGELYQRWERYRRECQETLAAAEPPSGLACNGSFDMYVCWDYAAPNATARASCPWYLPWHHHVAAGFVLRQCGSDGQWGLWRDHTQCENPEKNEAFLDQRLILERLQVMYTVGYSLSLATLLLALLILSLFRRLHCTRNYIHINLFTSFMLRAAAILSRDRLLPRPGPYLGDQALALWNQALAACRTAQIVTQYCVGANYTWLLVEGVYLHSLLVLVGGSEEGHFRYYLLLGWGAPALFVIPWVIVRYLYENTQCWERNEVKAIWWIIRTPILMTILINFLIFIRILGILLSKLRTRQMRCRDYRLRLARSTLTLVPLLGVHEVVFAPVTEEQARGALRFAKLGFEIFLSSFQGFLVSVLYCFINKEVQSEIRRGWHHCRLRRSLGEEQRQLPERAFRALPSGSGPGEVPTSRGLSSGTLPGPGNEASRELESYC


Key:
human GLP-1 receptor = biological target: T3, human GLP-1 receptor (human, UniProt P43220 24-463); assay: [125I]-GLP-1 competition SPA, hGLP-1R membranes
T3 construct: whole, on cells; also called hGLP-1R; hGLP1R
How it was run: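 Competition binding in 25 mM HEPES pH 7.4, 2.5 mM CaCl₂, 1 mM MgCl₂, 0.1% bacitracin, 0.003% TWEEN-20, EDTA-free protease inhibitors. IC₅₀ from four-parameter nonlinear fit; Kᵢ given as geometric mean ± SEM, n = independent replicates on different days.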

human GIP receptor = biological target: T1, human GIP receptor; assay: [125I]-GIP competition SPA, hGIPR membranes
human glucagon receptor = biological target: T4, human glucagon receptor (human, UniProt P47871 26-477); assay: [125I]-Gcg competition SPA, hGcgR membranes
T4 construct: whole, on cells; also called hGcgR; GcgR

[1] = biological target: human GLP-1 receptor (GLP-1R) (human, UniProt P43220 24-463); assay: cell-based or functional assay
[2] = biological target: T2, human gastric inhibitory peptide …; assay: cell-based or functional assay

T4 sequence (P47871 26-477): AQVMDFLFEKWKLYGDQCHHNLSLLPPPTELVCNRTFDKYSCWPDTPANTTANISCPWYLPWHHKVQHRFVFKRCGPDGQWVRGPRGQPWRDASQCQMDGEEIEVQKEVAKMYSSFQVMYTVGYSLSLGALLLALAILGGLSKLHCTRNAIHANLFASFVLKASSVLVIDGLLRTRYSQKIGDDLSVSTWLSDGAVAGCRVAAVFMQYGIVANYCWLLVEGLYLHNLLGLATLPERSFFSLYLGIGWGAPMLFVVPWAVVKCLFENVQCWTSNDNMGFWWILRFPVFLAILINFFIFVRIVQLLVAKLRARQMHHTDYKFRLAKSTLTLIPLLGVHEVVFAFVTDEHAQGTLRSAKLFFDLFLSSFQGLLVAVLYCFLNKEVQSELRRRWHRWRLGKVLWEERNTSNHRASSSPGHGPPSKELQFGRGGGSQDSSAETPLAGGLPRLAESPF

Row | Binder | Ki (human GLP-1 receptor) [nM] | Ki (human GIP receptor) [nM] | Ki (human glucagon receptor) [nM] | hGLP1R cAMP EC50 ratio [1] | hGIPR cAMP EC50 ratio [2]
1 | YXEGTFTSDYSIXLDKKAQXEFIEXLIAGGPSSGAPPPS (Aib2; αMeL13; K17((2-[2-(2-Amino-ethoxy)-ethoxy]-acetyl)2-(γ-Glu)-CO-(CH2)18-CO2H); Aib20; αMeY25; C-terminal NH2) [Example 367] | 0.809 | 0.0282 | 777 | – | –
2 | YXEGTXTSDYSILLDKKAQXAFIEYLIEGGPSSGAPPPS (Aib2; αMeF(2F)6; K17((2-[2-(2-Amino-ethoxy)-ethoxy]-acetyl)2-(γ-Glu)-CO-(CH2)18-CO2H); Aib20; C-terminal NH2) [Example 325] | 0.475 | 0.0209 | 13 | – | –
3 | XXEGTFTSDYSIXLDXKAQXAFVEYLIEGGPSSGAPPPS (D-Tyr1; Aib2; αMeL13; Orn16; K17 conjugated to (2-[2-(2-Amino-ethoxy)-ethoxy]-acetyl)2-(γ-Glu)-CO-(CH2)18-CO2H; Aib20; C-terminal amide (NH2)) | – | – | – | 0.171 | 0.53
4 | XXEGTFTSDYSIXLDXKAQXAFVXYLIAGGPSSGAPPPS (D-Tyr1; Aib2; αMeL13; Orn16; K17 conjugated to (2-[2-(2-Amino-ethoxy)-ethoxy]-acetyl)2-(γ-Glu)-CO-(CH2)16-CO2H; Aib20; D-Glu24; C-terminal amide (NH2)) | – | – | – | 0.0303 | 0.347
5 | XXEGTXTSDYSIXLDKKAQXAFIEYLIEGGPSSGAPPPS (D-Tyr1; Aib2; αMeF(2F)6; αMeL13; K17((2-[2-(2-Amino-ethoxy)-ethoxy]-acetyl)2-(γ-Glu)-CO-(CH2)18-CO2H); Aib20; C-terminal NH2) [Example 336] | 2.44 | 0.0277 | 17.1 | – | –
6 | XXEGTFTSDYSIXLDXKAQXAFVXYLIAGGPSSGAPPPS (D-Tyr1; Aib2; αMeL13; Orn16; K17 conjugated to (2-[2-(2-Amino-ethoxy)-ethoxy]-acetyl)2-(γ-Glu)-CO-(CH2)18-CO2H; Aib20; D-Glu24; C-terminal amide (NH2)) | – | – | – | 0.0805 | 0.347
7 | XXEGTFTSDYSIXLDXKAQXAFVEYLIAGGPSSGAPPPS (D-Tyr1; Aib2; αMeL13; Orn16; K17((2-[2-(2-Amino-ethoxy)-ethoxy]-acetyl)2-(γ-Glu)-CO-(CH2)18-CO2H); Aib20; C-terminal NH2) [Example 358] | 1.37 | 0.0636 | 915 | – | –
8 | XXEGTFTSDYSIXLDKKAQXAFVXYLIAGGPSSGAPPPS (D-Tyr1; Aib2; αMeL13; K17 conjugated to (2-[2-(2-Amino-ethoxy)-ethoxy]-acetyl)2-(γ-Glu)-CO-(CH2)18-CO2H; Aib20; D-Glu24; C-terminal amide (NH2)) | – | – | – | 0.0259 | 0.261
9 | XXEGTXTSDYSIXLDKKAQXAFIEYLIEGGPSSGAPPPS (D-Tyr1; Aib2; αMeF6; αMeL13; K17((2-[2-(2-Amino-ethoxy)-ethoxy]-acetyl)2-(γ-Glu)-CO-(CH2)18-CO2H); Aib20; C-terminal NH2) [Example 335] | 2.54 | 0.0444 | 27.1 | – | –
10 | XXEGTXTSDYSILLDKKAQXAFIEYLIEGGPSSGAPPPS (D-Tyr1; Aib2; αMeF6; K17((2-[2-(2-Amino-ethoxy)-ethoxy]-acetyl)2-(γ-Glu)-CO-(CH2)18-CO2H); Aib20; C-terminal NH2) [Example 329] | 3.28 | 0.0439 | 17 | – | –
11 | XXEGTFTSDYSIXLDXKAQXAFIXYLIAGGPSSGAPPPS (D-Tyr1; Aib2; αMeL13; Orn16; K17 conjugated to (2-[2-(2-Amino-ethoxy)-ethoxy]-acetyl)2-(γ-Glu)-CO-(CH2)16-CO2H; Aib20; C-terminal amide (NH2)) | – | – | – | 0.146 | 0.835
12 | XXEGTFTSDYSIXLDKKAQXAFIEXLIAGGPSSGAPPPS (D-Tyr1; Aib2; αMeL13; K17 conjugated to (2-[2-(2-Amino-ethoxy)-ethoxy]-acetyl)2-(γ-Glu)-CO-(CH2)18-CO2H; Aib20; αMeY25; C-terminal amide (NH2)) | – | – | – | 0.155 | 0.784
13 | XXEGTFTSDYSIXLDXKAQXAFIEXLIAGGPSSGAPPPS (D-Tyr1; Aib2; αMeL13; Orn16; K17 conjugated to (2-[2-(2-Amino-ethoxy)-ethoxy]-acetyl)2-(γ-Glu)-CO-(CH2)18-CO2H; Aib20; αMeY25; C-terminal amide (NH2)) | – | – | – | 0.074 | 0.598
14 | XXEGTFTSDYSIXLDXKAQXAFIEYLIAGGPSSGAPPPS (D-Tyr1; Aib2; αMeL13; Orn16; K17((2-[2-(2-Amino-ethoxy)-ethoxy]-acetyl)2-(γ-Glu)-CO-(CH2)18-CO2H); Aib20; C-terminal NH2) [Example 346] | 1.67 | 0.0559 | 310 | – | –
15 | XXEGTFTSDYSIXLDXKAQXAFVEYLIEGGPSSGAPPPS (D-Tyr1; Aib2; αMeL13; Orn16; K17((2-[2-(2-Amino-ethoxy)-ethoxy]-acetyl)2-(γ-Glu)-CO-(CH2)18-CO2H); Aib20; C-terminal NH2) [Example 360] | 1.74 | 0.128 | 485 | – | –
